{"source": "paper PMC3709774", "about": "“Preparation of Novel Poly(hydroxyethyl methacrylate-coglycidyl methacrylate)-Grafted Core-Shell Magnetic Chitosan Microspheres and Immobilization of Lactase” (International Journal of Molecular Sciences, 2013)", "proteins": {"B1": {"name": "lactase (DSM Maxilact 5000) (Kluyveromyces lactis NRRL Y-1140) (protein)", "chain": "MSCLIPENLRNPKKVHENRLPTRAYYYDQDIFESLNGPWAFALFDAPLDAPDAKNLDWETAKKWSTISVPSHWELQEDWKYGKPIYTNVQYPIPIDIPNPPTVNPTGVYARTFELDSKSIESFEHRLRFEGVDNCYELYVNGQYVGFNKGSRNGAEFDIQKYVSEGENLVVVKVFKWSDSTYIEDQDQWWLSGIYRDVSLLKLPKKAHIEDVRVTTTFVDSQYQDAELSVKVDVQGSSYDHINFTLYEPEDGSKVYDASSLLNEENGNTTFSTKEFISFSTKKNEETAFKINVKAPEHWTAENPTLYKYQLDLIGSDGSVIQSIKHHVGFRQVELKDGNITVNGKDILFRGVNRHDHHPRFGRAVPLDFVVRDLILMKKFNINAVRNSHYPNHPKVYDLFDKLGFWVIDEADLETHGVQEPFNRHTNLEAEYPDTKNKLYDVNAHYLSDNPEYEVAYLDRASQLVLRDVNHPSIIIWSLGNEACYGRNHKAMYKLIKQLDPTRLVHYEGDLNALSADIFSFMYPTFEIMERWRKNHTDENGKFEKPLILCEYGHAMGNGPGSLKEYQELFYKEKFYQGGFIWEWANHGIEFEDVSTADGKLHKAYAYGGDFKEEVHDGVFIMDGLCNSEHNPTPGLVEYKKVIEPVHIKIAHGSVTITNKHDFITTDHLLFIDKDTGKTIDVPSLKPEESVTIPSDTTYVVAVLKDDAGVLKAGHEIAWGQAELPLKVPDFVTETAEKAAKINDGKRYVSVESSGLHFILDKLLGKIESLKVKGKEISSKFEGSSITFWRPPTNNDEPRDFKNWKKYNIDLMKQNIHGVSVEKGSNGSLAVVTVNSRISPVVFYYGFETVQKYTIFANKINLNTSMKLTGEYQPPDFPRVGYEFWLGDSYESFEWLGRGPGESYPDKKESQRFGLYDSKDVEEFVYDYPQENGNHTDTHFLNIKFEGAGKLSIFQKEKPFNFKISDEYGVDEAAHACDVKRYGRHYLRLDHAIHGVGSEACGPAVLDQYRLKAQDFNFEFDLAFE", "notes": "commercial enzyme preparation, free (not immobilised)"}}, "substrate": "O=[N+]([O-])c1ccccc1O[C@@H]1O[C@H](CO)[C@H](O)[C@H](O)[C@H]1O", "assay": "purified protein", "assay_type": "biochemical, Kluyveromyces lactis", "conditions": "free enzyme, 37 °C, assay buffer 50 mM potassium phosphate, 1 mmol/L MgCl2, pH 6.5 (general activity assay), substrate range printed as 6.3-31.5 μmol/L, which conflicts with the mmol/L unit of Km"}
{"protein": "B1", "values": [{"measurement": "Km", "value": 25.4, "unit": "mM"}, {"measurement": "kcat", "value": 1182.9, "unit": "s⁻¹"}]}
